Source: PMC11187563, “The importance of tyrosines in multimers of cyclic RGD nonapeptides: towards αvβ6-integrin targeted radiotherapeutics” (RSC Medicinal Chemistry, 2024)
Like-named read-outs stand apart in the source and are kept apart here.

Columns and labels:
[1] = Ex vivo biodistribution of 177Lu-labeled peptide tetramers in H2009 xenografted SCID mice; conditions: CB17 SCID, mouse, iv, total radioactivity, H2009 bearing SCID mice; for tissue uptake at 1.5 h / tissue to tissue ratio at 1.5 h: 43 pmol, 90 min p.i.; for tissue uptake at 72 h / tissue to tissue ratio at 72 h: 64 pmol, 3 d p.i.
In short: (§1)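 SCID mice carried subcutaneous H2009 xenografts on the right shoulder. 177Lu-labeled conjugates were injected i.v., and ex vivo organ distribution was measured at two time points post-injection.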

[2] = system: αvβ6-integrin expressing human lung adenocarcinoma cell line H2009 xenografts; experiment: as above; conditions: H2009 bearing SCID mice
In short: as §1

[3] = H2009 tumor, read-out: Tumor H2009 %IA/g
[4] = adrenals, read-out: Adrenals %IA/g
[5] = heart (myocard), read-out: Heart (myocard) %IA/g
[6] = kidneys, read-out: Kidneys %IA/g
[7] = large intestine (empty), read-out: Large intestine (empty) %IA/g
[8] = pancreas, read-out: Pancreas %IA/g
[9] = small intestine (empty), read-out: Small intestine (empty) %IA/g
[10] = stomach (empty), read-out: Stomach (empty) %IA/g
[11] = tumor/blood, read-out: tumor/organ ratio, Blood
[12] = tumor/heart (myocard), read-out: tumor/organ ratio, Heart (myocard)
[13] = tumor/liver, read-out: tumor/organ ratio, Liver
[14] = tumor/lung, read-out: tumor/organ ratio, Lung
[15] = tumor/pancreas, read-out: tumor/organ ratio, Pancreas
[16] = tumor/spleen, read-out: tumor/organ ratio, Spleen

CC(C)C[C@@H]1NC(=O)[C@H](CC(=O)O)NC(=O)CNC(=O)[C@H](CCCNC(=N)N)NC(=O)[C@H](Cc2ccccc2)NC(=O)[C@H](CCCCNC(=O)CCc2cn(CCCNC(=O)CCP(=O)(O)CN3CCN(CP(=O)(O)CCC(=O)NCCCn4cc(CCC(=O)NCCCC[C@H]5C(=O)N[C@@H](Cc6ccccc6)C(=O)N[C@@H](CCCNC(=N)N)C(=O)NCC(=O)N[C@@H](CC(=O)O)C(=O)N[C@@H](CC(C)C)C(=O)N[C@@H](C)C(=O)N[C@@H](Cc6ccc(O)cc6)C(=O)N6CCC[C@@H]6C(=O)N5C)nn4)CCN(CP(=O)(O)CCC(=O)NCCCn4cc(CCC(=O)NCCCC[C@H]5C(=O)N[C@@H](Cc6ccccc6)C(=O)N[C@@H](CCCNC(=N)N)C(=O)NCC(=O)N[C@@H](CC(=O)O)C(=O)N[C@@H](CC(C)C)C(=O)N[C@@H](C)C(=O)N[C@@H](Cc6ccc(O)cc6)C(=O)N6CCC[C@@H]6C(=O)N5C)nn4)CCN(CP(=O)(O)CCC(=O)NCCCn4cc(CCC(=O)NCCCC[C@H]5C(=O)N[C@@H](Cc6ccccc6)C(=O)N[C@@H](CCCNC(=N)N)C(=O)NCC(=O)N[C@@H](CC(=O)O)C(=O)N[C@@H](CC(C)C)C(=O)N[C@@H](C)C(=O)N[C@@H](Cc6ccc(O)cc6)C(=O)N6CCC[C@@H]6C(=O)N5C)nn4)CC3)nn2)N(C)C(=O)[C@H]2CCCN2C(=O)[C@H](Cc2ccc(O)cc2)NC(=O)[C@H](C)NC1=O [Compound 177Lu-Y4, metal not drawn]
tissue uptake at 1.5 h [1, 3]: 6.91 %ID/g | tissue uptake at 72 h [1, 3]: 2.07 %ID/g | tissue uptake at 1.5 h [1, 4]: 0.52 %ID/g | tissue uptake at 72 h [1, 4]: 0.9 %ID/g | tissue uptake at 1.5 h ([1]; blood, read-out: Blood %IA/g): 1.33 %ID/g | tissue uptake at 72 h ([1]; blood, read-out: Blood %IA/g): 0.02 %ID/g | tissue uptake at 1.5 h ([1]; bone, read-out: Bone %IA/g): 1.84 %ID/g | tissue uptake at 72 h ([1]; bone, read-out: Bone %IA/g): 0.55 %ID/g | tissue uptake at 1.5 h [1, 5]: 0.74 %ID/g | tissue uptake at 72 h [1, 5]: 0.27 %ID/g | tissue uptake at 1.5 h [1, 6]: 219 %ID/g | tissue uptake at 72 h [1, 6]: 203 %ID/g | tissue uptake at 1.5 h [1, 7]: 6.99 %ID/g | tissue uptake at 72 h [1, 7]: 1.33 %ID/g | tissue uptake at 1.5 h ([1]; liver, read-out: Liver %IA/g): 1.06 %ID/g | tissue uptake at 72 h ([1]; liver, read-out: Liver %IA/g): 0.88 %ID/g | tissue uptake at 1.5 h ([1]; lung, read-out: Lung %IA/g): 6.74 %ID/g | tissue uptake at 72 h ([1]; lung, read-out: Lung %IA/g): 1.21 %ID/g | tissue uptake at 1.5 h ([1]; muscle, read-out: Muscle %IA/g): 1 %ID/g | tissue uptake at 72 h ([1]; muscle, read-out: Muscle %IA/g): 0.28 %ID/g | tissue uptake at 1.5 h [1, 8]: 0.37 %ID/g | tissue uptake at 72 h [1, 8]: 0.19 %ID/g | tissue uptake at 1.5 h [1, 9]: 3.05 %ID/g | tissue uptake at 72 h [1, 9]: 0.26 %ID/g | tissue uptake at 1.5 h ([1]; spleen, read-out: Spleen %IA/g): 4.71 %ID/g | tissue uptake at 72 h ([1]; spleen, read-out: Spleen %IA/g): 1.31 %ID/g | tissue uptake at 1.5 h [1, 10]: 10.7 %ID/g | tissue uptake at 72 h [1, 10]: 3.88 %ID/g | tissue to tissue ratio at 72 h ([1]; tumor / adrenals, read-out: tumor/organ ratio, Adrenals): 4.1 | tissue to tissue ratio at 72 h ([1]; tumor / bone, read-out: tumor/organ ratio, Bone): 3.8 | tissue to tissue ratio at 72 h ([1]; tumor / large intestine (empty), read-out: tumor/organ ratio, Large intestine (empty)): 1.6 | tissue to tissue ratio at 72 h ([1]; tumor / muscle, read-out: tumor/organ ratio, Muscle): 9.1 | tissue to tissue ratio at 72 h ([1]; tumor / small intestine (empty), read-out: tumor/organ ratio, Small intestine (empty)): 8.2 | tissue to tissue ratio at 72 h ([1]; tumor / stomach (empty), read-out: tumor/organ ratio, Stomach (empty)): 0.6 | tissue to tissue ratio at 1.5 h ([1]; tumor/adrenals, read-out: tumor/organ ratio, Adrenals): 13.9 | tissue to tissue ratio at 1.5 h [1, 11]: 5.2 | tissue to tissue ratio at 72 h [1, 11]: 108 | tissue to tissue ratio at 1.5 h ([1]; tumor/bone, read-out: tumor/organ ratio, Bone): 3.8 | tissue to tissue ratio at 1.5 h [1, 12]: 9.6 | tissue to tissue ratio at 72 h [1, 12]: 8.2 | tissue to tissue ratio at 1.5 h ([1]; tumor/large intestine (empty), read-out: tumor/organ ratio, Large intestine (empty)): 1 | tissue to tissue ratio at 1.5 h [1, 13]: 6.6 | tissue to tissue ratio at 72 h [1, 13]: 2.6 | tissue to tissue ratio at 1.5 h [1, 14]: 1 | tissue to tissue ratio at 72 h [1, 14]: 1.7 | tissue to tissue ratio at 1.5 h ([1]; tumor/muscle, read-out: tumor/organ ratio, Muscle): 8.2 | tissue to tissue ratio at 1.5 h [1, 15]: 18.6 | tissue to tissue ratio at 72 h [1, 15]: 11.3 | tissue to tissue ratio at 1.5 h ([1]; tumor/small intestine (empty), read-out: tumor/organ ratio, Small intestine (empty)): 2.6 | tissue to tissue ratio at 1.5 h [1, 16]: 1.5 | tissue to tissue ratio at 72 h [1, 16]: 1.7 | tissue to tissue ratio at 1.5 h ([1]; tumor/stomach (empty), read-out: tumor/organ ratio, Stomach (empty)): 0.7 | tumor/organ ratio, Kidneys ([2]; 90 min p.i.): 0.0 | tumor/organ ratio, Kidneys ([2]; 3 d p.i.): 0.0
